Test results: the supplement of paper PMC5998384

Legend:
HeLa Kyoto [1] = experiment: melting temperature (median over replicates), in situ; higher = more thermally stable
HeLa Kyoto [2] = experiment: solubility in G1/S (NP-40 vs SDS abundance) (log2 ratio); higher = more soluble; settings: cell cycle stage: G1/S
HeLa Kyoto [3] = experiment: solubility change mitosis vs G1/S (difference of NP-40 vs SDS log2 ratios) (log2 ratio difference); higher = more soluble in mitosis
HeLa Kyoto [4] = experiment: thermal stability score vs G1/S (z-score of summed log2 fold changes over temperatures); higher = more thermally stable than in G1/S
[5] = cell cycle stage: early G1 (4.5 h after nocodazole release)
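Throughout, for melting temperature (median over replicates), in situ: HeLa Kyoto cells synchronized by double thymidine or nocodazole block, proteins quantified by TMT10plex mass spectrometry, three independent biological replicates.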
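Throughout, for solubility change mitosis vs G1/S (difference of NP-40 vs SDS log2 ratios): synchronized HeLa Kyoto cells (double thymidine block for G1/S, nocodazole release for mitosis), protein amounts in NP-40 versus SDS lysates quantified by mass spectrometry, three biological replicates.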
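Throughout, for solubility in G1/S (NP-40 vs SDS abundance): HeLa Kyoto cells arrested at G1/S by double thymidine block, proteins quantified by TMT10plex mass spectrometry in mild NP-40 versus SDS extracts, three biological replicates.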
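Throughout, for thermal stability score vs G1/S (z-score of summed log2 fold changes over temperatures): synchronized HeLa Kyoto cells, proteins quantified by TMT10plex mass spectrometry, three biological replicates, mitosis taken 0.5 h after nocodazole release, G1/S directly after double thymidine block.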

GALNT2, sequence (chain, as listed by the source): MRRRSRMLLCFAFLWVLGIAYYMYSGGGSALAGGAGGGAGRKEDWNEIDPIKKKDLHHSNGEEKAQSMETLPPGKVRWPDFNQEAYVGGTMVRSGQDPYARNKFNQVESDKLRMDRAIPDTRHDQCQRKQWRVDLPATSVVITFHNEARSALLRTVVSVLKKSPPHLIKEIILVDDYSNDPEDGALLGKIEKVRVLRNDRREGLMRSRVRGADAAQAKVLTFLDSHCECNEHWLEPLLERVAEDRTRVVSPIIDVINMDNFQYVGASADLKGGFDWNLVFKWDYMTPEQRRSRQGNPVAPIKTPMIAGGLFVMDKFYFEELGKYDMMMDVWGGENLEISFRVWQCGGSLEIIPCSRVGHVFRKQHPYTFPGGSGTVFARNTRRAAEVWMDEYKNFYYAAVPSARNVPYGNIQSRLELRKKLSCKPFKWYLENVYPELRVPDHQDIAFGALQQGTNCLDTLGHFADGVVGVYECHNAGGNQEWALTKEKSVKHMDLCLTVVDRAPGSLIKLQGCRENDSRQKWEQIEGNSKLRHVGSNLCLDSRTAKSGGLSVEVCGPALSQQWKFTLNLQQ

Row | Substance | melting temperature (HeLa Kyoto [1]; cell cycle stage: G1/S) | melting temperature (HeLa Kyoto [1]; cell cycle stage: mitosis) | solubility in G1/S (log2) (HeLa Kyoto [2]) | solubility change mitosis (log2) (HeLa Kyoto [3]) | thermal stability score (HeLa Kyoto [4]; [5]) | thermal stability score (HeLa Kyoto [4]; cell cycle stage: mitosis)
1 | MPSRKFADGEVVRGRWPGSSLYYEVEILSHDSTSQLYTVKYKDGTELELKENDIKPLTSFRQRKGGSTSSSPSRRRGSRSRSRSRSPGRPPKSARRSASASHQADIKEARREVEVKLTPLILKPFGNSISRYNGEPEHIERNDAPHKNTQEKFSLSQESSYIATQYSLRPRREEVKLKEIDSKEEKYVAKELAVRTFEVTPIRAKDLEFGGVPGVFLIMFGLPVFLFLLLLMCKQKDPSLLNFPPPLPALYELWETRVFGVYLLWFLIQVLFYLLPIGKVVEGTPLIDGRRLKYRLNGFYAFILTSAVIGTSLFQGVEFHYVYSHFLQFALAATVFCVVLSVYLYMRSLKAPRNDLSPASSGNAVYDFFIGRELNPRIGTFDLKYFCELRPGLIGWVVINLVMLLAEMKIQDRAVPSLAMILVNSFQLLYVVDALWNEEALLTTMDIIHDGFGFMLAFGDLVWVPFIYSFQAFYLVSHPNEVSWPMASLIIVLKLCGYVIFRGANSQKNAFRKNPSDPKLAHLKTIHTSTGKNLLVSGWWGFVRHPNYLGDLIMALAWSLPCGFNHILPYFYIIYFTMLLVHREARDEYHCKKKYGVAWEKYCQRVPYRIFPYIY [LBR] | 53.1 °C | 52.5 °C | -0.228 | -0.0634 | -0.47 | -1.19
2 | NFAT5 | 50 °C | 50.6 °C | -0.0162 | -0.176 | 0.898 | 1.21
3 | MIPLLLAALLCVPAGALTCYGDSGQPVDWFVVYKLPALRGSGEAAQRGLQYKYLDESSGGWRDGRALINSPEGAVGRSLQPLYRSNTSQLAFLLYNDQPPQPSKAQDSSMRGHTKGVLLLDHDGGFWLVHSVPNFPPPASSAAYSWPHSACTYGQTLLCVSFPFAQFSKMGKQLTYTYPWVYNYQLEGIFAQEFPDLENVVKGHHVSQEPWNSSITLTSQAGAVFQSFAKFSKFGDDLYSGWLAAALGTNLQVQFWHKTVGILPSNCSDIWQVLNVNQIAFPGPAGPSFNSTEDHSKWCVSPKGPWTCVGDMNRNQGEEQRGGGTLCAQLPALWKAFQPLVKNYQPCNGMARKPSRAYKI [DNASE2] | 56.2 °C | 56.1 °C | 0.364 | -0.0918 | -1.39 | -2.33
4 | PIEZO1 | 57.1 °C | 56.5 °C | -0.227 | -0.0922 | -1.8 | -2.23
5 | MDGTRTSLDIEEYSDTEVQKNQVLTLEEWQDKWVNGKTAFHQEQGHQLLKKHLDTFLKGKSGLRVFFPLCGKAVEMKWFADRGHSVVGVEISELGIQEFFTEQNLSYSEEPITEIPGTKVFKSSSGNISLYCCSIFDLPRTNIGKFDMIWDRGALVAINPGDRKCYADTMFSLLGKKFQYLLCVLSYDPTKHPGPPFYVPHAEIERLFGKICNIRCLEKVDAFEERHKSWGIDCLFEKLYLLTEK [TPMT] | 54 °C | 54 °C | 0.0374 | -0.18 | -0.85 | -0.417
6 | MEALILEPSLYTVKAILILDNDGDRLFAKYYDDTYPSVKEQKAFEKNIFNKTHRTDSEIALLEGLTVVYKSSIDLYFYVIGSSYENELMLMAVLNCLFDSLSQMLRKNVEKRALLENMEGLFLAVDEIVDGGVILESDPQQVVHRVALRGEDVPLTEQTVSQVLQSAKEQIKWSLLR [COPZ1] | 52.4 °C | 53.1 °C | 0.235 | 0.197 | -1.54 | -1.52
7 | MAAAAAAAAAAGAAGGRGSGPGRRRHLVPGAGGEAGEGAPGGAGDYGNGLESEELEPEELLLEPEPEPEPEEEPPRPRAPPGAPGPGPGSGAPGSQEEEEEPGLVEGDPGDGAIEDPELEAIKARVREMEEEAEKLKELQNEVEKQMNMSPPPGNAGPVIMSIEEKMEADARSIYVGNVDYGATAEELEAHFHGCGSVNRVTILCDKFSGHPKGFAYIEFSDKESVRTSLALDESLFRGRQIKVIPKRTNRPGISTTDRGFPRARYRARTTNYNSSRSRFYSGFNSRPRGRVYRGRARATSWYSPY [PABPN1] | 48.9 °C | 50.5 °C | 0.016 | 0.441 | 1.6 | 2.2
8 | GALNT2 | 51.6 °C | 52 °C | -0.0412 | -0.0991 | 9.37 | 17.4
9 | AHNAK2 | 53 °C | 53.5 °C | 0.073 | -0.0597 | 0.749 | 3.16
10 | MSRLRALLGLGLLVAGSRVPRIKSQTIACRSGPTWWGPQRLNSGGRWDSEVMASTVVKYLSQEEAQAVDQELFNEYQFSVDQLMELAGLSCATAIAKAYPPTSMSRSPPTVLVICGPGNNGGDGLVCARHLKLFGYEPTIYYPKRPNKPLFTALVTQCQKMDIPFLGEMPAEPMTIDELYELVVDAIFGFSFKGDVREPFHSILSVLKGLTVPIASIDIPSGWDVEKGNAGGIQPDLLISLTAPKKSATQFTGRYHYLGGRFVPPALEKKYQLNLPPYPDTECVYRLQ [APOA1BP] | 56.4 °C | 55.3 °C | 0.462 | 0.417 | -2.06 | -3.77
11 | DNAJC21 | 50.7 °C | 49.9 °C | -0.451 | 0.168 | 2.06 | 1.36
12 | MTSKKLVNSVAGCADDALAGLVACNPNLQLLQGHRVALRSDLDSLKGRVALLSGGGSGHEPAHAGFIGKGMLTGVIAGAVFTSPAVGSILAAIRAVAQAGTVGTLLIVKNYTGDRLNFGLAREQARAEGIPVEMVVIGDDSAFTVLKKAGRRGLCGTVLIHKVAGALAEAGVGLEEIAKQVNVVAKAMGTLGVSLSSCSVPGSKPTFELSADEVELGLGIHGEAGVRRIKMATADEIVKLMLDHMTNTTNASHVPVQPGSSVVMMVNNLGGLSFLELGIIADATVRSLEGRGVKIARALVGTFMSALEMPGISLTLLLVDEPLLKLIDAETTAAAWPNVAAVSITGRKRSRVAPAEPQEAPDSTAAGGSASKRMALVLERVCSTLLGLEEHLNALDRAAGDGDCGTTHSRAARAIQEWLKEGPPPASPAQLLSKLSVLLLEKMGGSSGALYGLFLTAAAQPLKAKTSLPAWSAAMDAGLEAMQKYGKAAPGDRTMLDSLWAAGQELQAWKSPGADLLQVLTKAVKSAEAAAEATKNMEAGAGRASYISSARLEQPDPGAVAAAAILRAILEVLQS [TKFC] | 54.8 °C | 55 °C | 0.321 | -0.0666 | 1.34 | 0.558
13 | HELZ | 52.3 °C | 52.3 °C | 0.00285 | -0.131 | -0.338 | -0.16
14 | MATGANATPLDFPSKKRKRSRWNQDTMEQKTVIPGMPTVIPPGLTREQERAYIVQLQIEDLTRKLRTGDLGIPPNPEDRSPSPEPIYNSEGKRLNTREFRTRKKLEEERHNLITEMVALNPDFKPPADYKPPATRVSDKVMIPQDEYPEINFVGLLIGPRGNTLKNIEKECNAKIMIRGKGSVKEGKVGRKDGQMLPGEDEPLHALVTANTMENVKKAVEQIRNILKQGIETPEDQNDLRKMQLRELARLNGTLREDDNRILRPWQSSETRSITNTTVCTKCGGAGHIASDCKFQRPGDPQSAQDKARMDKEYLSLMAELGEAPVPASVGSTSGPATTPLASAPRPAAPANNPPPPSLMSTTQSRPPWMNSGPSESRPYHGMHGGGPGGPGGGPHSFPHPLPSLTGGHGGHPMQHNPNGPPPPWMQPPPPPMNQGPHPPGHHGPPPMDQYLGSTPVGSGVYRLHQGKGMMPPPPMGMMPPPPPPPSGQPPPPPSGPLPPWQQQQQQPPPPPPPSSSMASSTPLPWQQNTTTTTTSAGTGSIPPWQQQQAAAAASPGAPQMQGNPTMVPLPPGVQPPLPPGAPPPPPPPPPGSAGMMYAPPPPPPPPMDPSNFVTMMGMGVAGMPPFGMPPAPPPPPPQN [SF1] | 53.4 °C |  | 0.255 | 0.135 | -4.58 | -1.85
15 | MTECFLPPTSSPSEHRRVEHGSGLTRTPSSEEISPTKFPGLYRTGEPSPPHDILHEPPDVVSDDEKDHGKKKGKFKKKEKRTEGYAAFQEDSSGDEAESPSKMKRSKGIHVFKKPSFSKKKEKDFKIKEKPKEEKHKEEKHKEEKHKEKKSKDLTAADVVKQWKEKKKKKKPIQEPEVPQIDVPNLKPIFGIPLADAVERTMMYDGIRLPAVFRECIDYVEKYGMKCEGIYRVSGIKSKVDELKAAYDREESTNLEDYEPNTVASLLKQYLRDLPENLLTKELMPRFEEACGRTTETEKVQEFQRLLKELPECNYLLISWLIVHMDHVIAKELETKMNIQNISIVLSPTVQISNRVLYVFFTHVQELFGNVVLKQVMKPLRWSNMATMPTLPETQAGIKEEIRRQEFLLNCLHRDLQGGIKDLSKEERLWEVQRILTALKRKLREAKRQECETKIAQEIASLSKEDVSKEEMNENEEVINILLAQENEILTEQEELLAMEQFLRRQIASEKEEIERLRAEIAEIQSRQQHGRSETEEYSSESESESEDEEELQIILEDLQRQNEELEIKNNHLNQAIHEEREAIIELRVQLRLLQMQRAKAEQQAQEDEEPEWRGGAVQPPRDGVLEPKAAKEQPKAGKEPAKPSPSRDRKETSI [RALBP1] | 47.8 °C | 50.4 °C | 0.0284 | 0.12 | 0.156 | 0.441
16 | MAAASAVSVLLVAAERNRWHRLPSLLLPPRTWVWRQRTMKYTTATGRNITKVLIANRGEIACRVMRTAKKLGVQTVAVYSEADRNSMHVDMADEAYSIGPAPSQQSYLSMEKIIQVAKTSAAQAIHPGCGFLSENMEFAELCKQEGIIFIGPPPSAIRDMGIKSTSKSIMAAAGVPVVEGYHGEDQSDQCLKEHARRIGYPVMIKAVRGGGGKGMRIVRSEQEFQEQLESARREAKKSFNDDAMLIEKFVDTPRHVEVQVFGDHHGNAVYLFERDCSVQRRHQKIIEEAPAPGIKSEVRKKLGEAAVRAAKAVNYVGAGTVEFIMDSKHNFCFMEMNTRLQVEHPVTEMITGTDLVEWQLRIAAGEKIPLSQEEITLQGHAFEARIYAEDPSNNFMPVAGPLVHLSTPRADPSTRIETGVRQGDEVSVHYDPMIAKLVVWAADRQAALTKLRYSLRQYNIVGLHTNIDFLLNLSGHPEFEAGNVHTDFIPQHHKQLLLSRKAAAKESLCQAALGLILKEKAMTDTFTLQAHDQFSPFSSSSGRRLNISYTRNMTLKDGKNNVAIAVTYNHDGSYSMQIEDKTFQVLGNLYSEGDCTYLKCSVNGVASKAKLIILENTIYLFSKEGSIEIDIPVPKYLSSVSSQETQGGPLAPMTGTIEKVFVKAGDKVKAGDSLMVMIAMKMEHTIKSPKDGTVKKVFYREGAQANRHTPLVEFEEEESDKRESE [MCCC1] | 51.4 °C | 51.3 °C | -0.0598 | -0.125 | -0.414 | -0.17
17 | MAEPTVCSFLTKVLCAHGGRMFLKDLRGHVELSEARLRDVLQRAGPERFLLQEVETQEGLGDAEAEAAAGAVGGGGTSAWRVVAVSSVRLCARYQRGECQACDQLHFCRRHMLGKCPNRDCWSTCTLSHDIHTPVNMQVLKSHGLFGLNENQLRILLLQNDPCLLPEVCLLYNKGEALYGYCNLKDKCNKFHVCKSFVKGECKLQTCKRSHQLIHAASLKLLQDQGLNIPSVVNFQIISTYKHMKLHKMLENTDNSSPSTEHSQGLEKQGVHAAGAAEAGPLASVPAQSAKKPCPVSCEK [ZC3HAV1L] | 50.2 °C | 50.2 °C | 0.135 | -0.0672 | 0.166 | -0.0104
18 | MAMRQTPLTCSGHTRPVVDLAFSGITPYGYFLISACKDGKPMLRQGDTGDWIGTFLGHKGAVWGATLNKDATKAATAAADFTAKVWDAVSGDELMTLAHKHIVKTVDFTQDSNYLLTGGQDKLLRIYDLNKPEAEPKEISGHTSGIKKALWCSEDKQILSADDKTVRLWDHATMTEVKSLNFNMSVSSMEYIPEGEILVITYGRSIAFHSAVSLDPIKSFEAPATINSASLHPEKEFLVAGGEDFKLYKYDYNSGEELESYKGHFGPIHCVRFSPDGELYASGSEDGTLRLWQTVVGKTYGLWKCVLPEEDSGELAKPKIGFPETTEEELEEIASENSDCIFPSAPDVKA [STRAP] | 52.3 °C | 52.2 °C | 0.14 | -0.127 | -1.2 | -3.1
